Series [1] is described as follows: Chromophore titration, fit to single binding site isotherm: DFHO. The settings on record: n=1 titration; ± SD of the fit; Table 3C. Here is the method:
(§1) Table 3A-C. Brightness and chromophore affinities of selected mFAP variants. Fluorescence brightness measurements at 10 μM (top table) and 100 nM (middle table) chromophore concentrations were normalized from 0 to 1 across all three chromophores (DFHBI, DFHBI-1T, and DFHO), and the normalized values for two protein concentrations tested for each chromophore at each chromophore concentration were averaged and standard deviations of the average computed. Reported values are the normalized averages and standard deviations of the means for each chromophore concentration and each chromophore. Reported relative densitometry values are the relative densitometry values normalized from 0 to 1 and represent how well each design expresses relative to one another in Lemo21(DE3) E. coli cultures. Thermodynamic dissociation constants (bottom table) are obtained by non-linear least squares fitting of chromophore titrations (n=1) to a single binding site isotherm, and values reported with the standard deviation of the fit. Where the obtained Kd values are below the protein concentration tested, the Kd and standard deviation of the fit are reported in parentheses. Values with “N/D” were not determined.

A short description of series [2]: Chromophore titration, fit to single binding site isotherm: DFHBI. Here is the method: (§2) Fluorescence binding assay. Protein-activated DFHBI fluorescence signals were measured in 96-well plate format (Corning 3650) on a Synergy neo2 plate reader (BioTek, Inc) with λex=450 nm or 460 nm and λem=500 nm or 510 nm. Binding reactions were performed at […] in PBS pH7.4 buffer. Protein concentrations were determined by 280 nm absorbance as described above. DFHBI (Lucerna, Inc) were resuspended in DMSO as instructed to make 100 mM stock and diluted in PBS to 0.5-10 μM. Approximate emission spectra were recorded for active designs from 490 to 600 nm.
as §1

Series [3] can be described thus: Chromophore titration, fit to single binding site isotherm: DFHBI-1T. The settings on record: n=1 titration; ± SD of the fit; Table 3C. Here is the method: as §1
Series [4] in a line: Fluorescence brightness with DFHBI-1T. The series is classed as biochemical. The settings on record: normalized 0 to 1 across all three chromophores; average ± SD of two protein concentrations. Here is the method:
as §1

A short description of series [5]: Fluorescence activation / brightness with DFHBI. The series is classed as biochemical. To be noted: normalized 0 to 1 across all three chromophores; average ± SD of two protein concentrations. Here is the method: as §2, §1
The nature of series [6]: Fluorescence brightness with DFHO. The series is classed as biochemical. To be noted: normalized 0 to 1 across all three chromophores; average ± SD of two protein concentrations. Here is the method: as §1
The nature of series [7]: Photophysical characterization (absorbance, excitation, emission, extinction coefficient, quantum yield). The series is classed as physicochemical. The settings on record: absolute.
In series [8] the test system is E. coli, yeast, and mammalian cells. Description: Confocal imaging of cells expressing mFAPs with DFHBI. Format: cell-based. To be noted: 20 μM DFHBI. Here is the method:
To determine whether the designed DFHBI-binding fluorescence-activating proteins function in living cells, we imaged mFAP1- and mFAP2-DFHBI complexes in E. coli, yeast, and mammalian cells by confocal microscopy. […] The quantum yield of mFAP1 and mFAP2 in complex with DFHBI is 2.0% and 2.1% respectively (Table 2).
Confocal image acquisition. Mammalian cell imaging of mFAP1 and mFAP2 was performed in NIH3T3 cells (Flp-In-3T3, Thermo Fisher Scientific, Inc). NIH3T3 cells were cultured in high-glucose DMEM, 4 mM L-glutamine, 10% fetal bovine serum (FBS, Life Technologies, Inc) at 37 degrees Celsius, 5% CO2. Cells were plated at 4×10^4 cells/mL in 35 mm glass-bottomed dishes (Matek, Inc) that were coated with poly-D-lysine. Cells were transfected 24 hours after plating with Lipofectamine™ 3000 (Thermo Fisher Scientific, Inc) at a ratio of 3 μL reagent:1 μL DNA, according to manufacturer's instructions, with […] plasmids of mFAPs or mFAP fusions (1.25 μg mCherry™ plasmid was added to the cytosolic constructs as a transfection control). Right before imaging, cell media was replaced with FluorBrite™ DMEM (Thermo Fisher Scientific, Inc) media supplemented with GlutaMax™ (Thermo Fisher Scientific, Inc) and 10% v/v FBS, and 20 μM DFHBI. […] A white light laser of 488 was used to excite the DFHBI and detected by a HyD detector, over a range of 495-550 nm. […]

Series [9] is described as follows: pH-dependent fluorescence of mFAP/DFHBI complexes. Format: biochemical. The settings on record: across pH 3.66-7.36. An excerpt: FIG. 22: In vitro characterization of the pH-responsive mFAP_pH and comparison to the existing pHRed system and pH-unresponsive mFAP2b. (a-c) Chemical basis of pH-responsiveness in mFAP_pH. (a) Chemical structures of protonated tautomers and deprotonated resonance structures of DFHBI. […] The arrangement of intermolecular hydrogen bonds in the binding site of mFAP2b (c, binding pocket of the design model with the phenolate form of DFHBI) has low shape complementarity to the protonated DFHBI tautomers. The mutations W27M and W93F improve binding to the protonated DFHBI tautomers (b, model of mFAP_pH binding pocket with the phenolic form of DFHBI). […] (d) Normalized fluorescence excitation spectra of the mFAP_pH/DFHBI complex are shown for a pH titration from pH 3.63 to pH 8.38. (e) mFAP_pH normalized fluorescence emission spectra at pH 3.63 and pH 8.38. […] (f) Binding of mFAP_pH to both the phenolic and phenolate forms of DFHBI results in a high fluorescence ratio fold-change from low to high pH. (h, i) pH-dependent fluorescence of the mFAPpH/DFHBI complex compared to the previously described pHRed system. […] (i) Fluorescence ratios (Fratio) of unnormalized fluorescence measurements from panel (h) for mFAP_pH and pHRed. […]
We sought to further improve fluorescence of the complex at acidic and neutral pH and built a site-directed mutagenesis (SDM) library at 15 positions of mFAP2.1. […]

[10] abbreviates: n=1 titration, ± SD of the fit, Table 3C, read-out: DFHBI Kd.

Where “and” joins values, the source holds several entries; their conditions need not be identical. Identical values can stand only once. A value given as a limit tells only on which side of the number the result lay.

The results in this text go back to patent US20210047373A1, “BETA BARREL POLYPEPTIDES AND METHODS FOR THEIR USE” (UNIVERSITY OF WASHINGTON, priority 2018, published 2021).

B1: mFAP1: SEQ ID NO:33; variant of b11L5F.2 (protein)
chain: MSRAAQLLPGTWQTTMTNEDGQTSQGQMHFQPRSPYTLDVVAQGTISDGRPISGYGKVTVKTDDTLDVDITYPSLGNIKVQGQVTMDSPTQFKFDATTSDGKKLTGTLQRQE
modifications: (1)..(1) optionally absent
B1 returned a Kd in series [1] of 7.8 ± 2.89 µM. Besides, the Kd in series [2] (setting [10]) was < 0.5 µM. In addition, the Kd in [2] (obtained Kd below the protein concentration tested, ± SD of the fit, read-out: DFHBI Kd, fit value in parentheses) came to 0.496 µM. Moreover, the Kd in series [3] is 10.8 ± 1 µM. Further, in series [4], the “Fluorescence brightness, 100 nM DFHBI-1T” value stood at 0.01 ± 0.0 and the “Fluorescence brightness, 10 μM DFHBI-1T” value was found to be 0.01 ± 0.0. In series [5], the “Fluorescence brightness, 100 nM DFHBI” value was 0.18 ± 0.0 and the “Fluorescence brightness, 10 μM DFHBI” value is recorded as 0.13 ± 0.02. In series [6], the “Fluorescence brightness, 100 nM DFHO” value is given as 0.01 ± 0.0 and the “Fluorescence brightness, 10 μM DFHO” value is on record as 0.0 ± 0.0. Moreover, in series [7], the “Quantum yield in complex with DFHBI” value is reported as 2.0%. Also, the “In vivo fluorescence activation” value in [8] is “showed in vivo fluorescence activation”.

B2: mFAP2: SEQ ID NO:38; variant of b11L5F.1 with 6-residue insertion in the seventh β-turn (protein)
chain: MSRAAQLLPGTWQVTMTNEDGQTSQGQMHFQPRSPYTMDVVAQGTISDGRPISGYGKVTVKTPDTLDVDITYPSLGNIKAQGQITMDSPTQFKFDATTKGAGNFTGRLTGTLQRQE
modifications: (1)..(1) optionally absent
Take B2: the Kd in series [1] was 22.7 ± 9.66 µM. Further, the Kd in [2] (setting [10]) is 1.15 ± 0.16 µM. Moreover, the Kd in [2] (read-out: Dissociation constant of DFHBI) is ~0.2 µM and ~0.18 µM. The same molecule yielded a Kd in [3] of 43.2 ± 7.01 µM. In series [4], the “Fluorescence brightness, 100 nM DFHBI-1T” value worked out at 0.15 ± 0.01 and the “Fluorescence brightness, 10 μM DFHBI-1T” value is on record as 0.33 ± 0.04. Moreover, in [5], the “Fluorescence brightness, 100 nM DFHBI” value was 0.12 ± 0.0 and the “Fluorescence brightness, 10 μM DFHBI” value amounted to 0.14 ± 0.03. Moreover, in [6], the “Fluorescence brightness, 100 nM DFHO” value turned out to be 0.01 ± 0.0 and the “Fluorescence brightness, 10 μM DFHO” value worked out at 0.01 ± 0.0. Further, the “Quantum yield in complex with DFHBI” value in series [7] is 2.1%. In addition, in series [8], the “In vivo fluorescence activation” value is given as “showed in vivo fluorescence activation”.

B3: mFAP2.2: SEQ ID NO:41 (protein)
chain: MSRAAQLLPGTWQVTMTNEDGQTSQGQMHFQPRSPYTMDVVAQGTISDGRPIVGYGKVTVKTPDTLDVDITYPSLGNIKAQGQITMDSPTQFKFDATTKGAGNFTGRLTGTLQRQE
modifications: (1)..(1) optionally absent
In the case of B3, the Kd in series [1] was found to be 22.7 ± 9.66 µM. The Kd in series [2] (setting [10]) turned out to be 1.15 ± 0.16 µM. Also, in [9], the “Fluorescence ratio fold-change, higher than mFAP2.1” value is recorded as ~1.3 fold. In [3], the Kd came to 43.2 ± 7.01 µM. In [4], the “Fluorescence brightness, 100 nM DFHBI-1T” value turned out to be 0.33 ± 0.02 and the “Fluorescence brightness, 10 μM DFHBI-1T” value is on record as 0.55 ± 0.02. In series [5], the “Fluorescence brightness, 100 nM DFHBI” value was determined as 0.13 ± 0.0 and the “Fluorescence brightness, 10 μM DFHBI” value worked out at 0.17 ± 0.03. For the same molecule, in series [6], the “Fluorescence brightness, 100 nM DFHO” value stood at 0.01 ± 0.0 and the “Fluorescence brightness, 10 μM DFHO” value was 0.01 ± 0.0.
